The source of these data is patent publication US20220177587A1, “METHODS AND USES OF VARIANT CD80 FUSION PROTEINS AND RELATED CONSTRUCTS” (Alpine Immune Sciences, Inc., priority 2018, published 2022).

In assay [1] the target is PD-L1 (human) (UniProt Q9NZQ7). The experiment in a line: flow cytometry, CHO cells expressing huPD-L1. For orientation: Flow cytometry measures light scatter and fluorescence of single cells or particles in a stream.
Assay [2] addresses CD28 (human) (UniProt P10747). Briefly: flow cytometry, Jurkat/IL2 reporter cells (CD28).
Assay [3] concerns the target PD-L1 (human) (UniProt Q9NZQ7).
Assay [4] has as its target CD28 (human) (UniProt P10747).
Another assay has as its target human CTLA-4 (human) (UniProt P16410). The experiment in a line: flow cytometry, CHO cells expressing CTLA4.
The target of assay [5] is CD28 (human) (UniProt P10747). The experiment in a line: flow cytometry, Jurkat cells (CD28).
The target of assay [6] is PD-L1 (human) (UniProt Q9NZQ7). The experiment in a line: flow cytometry, MFI on PD-L1 over MFI on CD28.
In assay [7] the target is PD-L1 (human) (UniProt Q9NZQ7). Briefly: flow cytometry, CHO cells expressing PD-L1.
The target of assay [8] is CD28 (human) (UniProt P10747). The source holds these as a separate data set.

Sequence of human CTLA-4 (human) (P16410 36-223): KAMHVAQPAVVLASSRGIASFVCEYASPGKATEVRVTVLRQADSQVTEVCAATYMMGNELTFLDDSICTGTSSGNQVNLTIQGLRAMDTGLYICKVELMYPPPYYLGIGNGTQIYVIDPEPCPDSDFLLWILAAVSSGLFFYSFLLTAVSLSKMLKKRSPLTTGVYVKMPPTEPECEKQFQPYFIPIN
Sequence of PD-L1 (human) (Q9NZQ7 19-290): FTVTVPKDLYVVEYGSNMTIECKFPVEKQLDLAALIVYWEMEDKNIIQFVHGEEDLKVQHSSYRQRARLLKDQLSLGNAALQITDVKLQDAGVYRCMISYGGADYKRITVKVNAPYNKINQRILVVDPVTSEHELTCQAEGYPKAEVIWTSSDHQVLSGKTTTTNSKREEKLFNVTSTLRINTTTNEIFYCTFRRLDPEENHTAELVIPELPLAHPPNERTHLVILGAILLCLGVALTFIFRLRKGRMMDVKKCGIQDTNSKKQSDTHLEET

With “variant CD80 IgV-Fc E35D/M47I/Y87Q/K89E (Fc fusion)”, the results for the MFI at 33.3 nM with PD-L1 (human) [1] and with CD28 (human) [2] were 29800 MFI and 15500 MFI, respectively.
As for “CD80 IgV-Fc V22D/E24D/E35D/M47L/V68M/L85M/D90G (Fc fusion)”, the RLU at 5.0 nM: Fold Increase over WT CD80-IgV-Fc in the assay with PD-L1 (human) [3] and in the assay with CD28 (human) [4] was 2.4 fold throughout.
As for “CD80 H18Y/E35D/M47L/V68M/E95V/L97Q IgV-Fc (Fc fusion)”, the Fold change to WT CD80 worked out at 11.7 fold with human CTLA-4 (human), 0.5 fold in the assay with CD28 (human) [5] and 286 fold with PD-L1 (human) [7]. Moreover, the MFI at 33.3 nM with human CTLA-4 (human) came out at 20500 MFI; with CD28 (human) [5], 14.5 MFI; with PD-L1 (human) [7], 14800 MFI. Further, the Ratio of PDL1:CD28 in the assay with PD-L1 (human) [6] is 1020.
In the case of “WT CD80 ECD-Fc (control of Table E5) (Fc fusion)”, the Fold increase in IL2 reporter signal (Jurkat/IL2 reporter assay) (fold vs WT CD80 IgV-Fc) in the assay with CD28 (human) [8] turned out to be 0.93.
As for “CD80 IgV-Fc V22D/E24D/E35D/M47L/V68M (Fc fusion)”, the RLU at 5.0 nM: Fold Increase over WT CD80-IgV-Fc with PD-L1 (human) [3] and in the assay with CD28 (human) [4] was 2.4 fold throughout.
“CD80 E35D/M43I/M47L/V68M IgV-Fc (Fc fusion)”: the Fold change to WT CD80 in the assay with human CTLA-4 (human) came to 9.3 fold; with CD28 (human) [5] it was 48.3 fold; with PD-L1 (human) [7], 328 fold. The MFI at 33.3 nM with human CTLA-4 (human) was found to be 16200 MFI; in the assay with CD28 (human) [5], 1520 MFI; in the assay with PD-L1 (human) [7], 16900 MFI. Further, the Ratio of PDL1:CD28 in the assay with PD-L1 (human) [6] was determined as 11.1.
On to “CD80 IgV-Fc E35D/D46E/M47V/V68M/L85Q (Fc fusion)”, for which the RLU at 5.0 nM: Fold Increase over WT CD80-IgV-Fc with PD-L1 (human) [3] and in the assay with CD28 (human) [4] was 2.5 fold each time.
For the substance “variant CD80 IgV-Fc E35D/A71D (SEQ ID NO 194) (Fc fusion)”, the Fold increase in IL2 reporter signal (Jurkat/IL2 reporter assay) (fold vs WT CD80 IgV-Fc) in the assay with CD28 (human) [8] was 0.2.
Same read-out and setting: the figure for “variant CD80 IgV-Fc V22L/M38V/M47T/A71D/L85M (Fc fusion)” is 0.43.
The substance “variant CD80 IgV-Fc Q27H/E35D/D46V/M47L/A71G (Fc fusion)” had an MFI at 33.3 nM with CD28 (human) [2] of 10400 MFI.
Turning to “CD80 E35D/M47L/V68M/E95V/L97Q IgV-Fc (Fc fusion)”, the Fold change to WT CD80 in the assay with human CTLA-4 (human) was found to be 8.5 fold; with CD28 (human) [5] it was 0.5 fold; with PD-L1 (human) [7], 361 fold. In addition, the MFI at 33.3 nM in the assay with human CTLA-4 (human) was found to be 15000 MFI; with CD28 (human) [5], 14 MFI; in the assay with PD-L1 (human) [7] it was 18600 MFI. For the same substance, the Ratio of PDL1:CD28 in the assay with PD-L1 (human) [6] turned out to be 1300.
For “variant CD80 IgV-Fc E35D/A71D (SEQ ID NO 176) (Fc fusion)”, the Fold increase in IL2 reporter signal (Jurkat/IL2 reporter assay) (fold vs WT CD80 IgV-Fc) in the assay with CD28 (human) [8] came out at 0.36.
For the substance “CD80 IgV-Fc E35D/D46E/M47I/V68M/L85M (Fc fusion)”, the RLU at 5.0 nM: Fold Increase over WT CD80-IgV-Fc in the assay with PD-L1 (human) [3] and with CD28 (human) [4] was 3.1 fold each time.
As for “CD80 IgV-Fc T13R/Q33L/E35D/M47V/T62S/V68M/L85M (Fc fusion)”, the RLU at 5.0 nM: Fold Increase over WT CD80-IgV-Fc with PD-L1 (human) [3] and in the assay with CD28 (human) [4] was 0.3 fold throughout.
